To fix the notation:
B1: ADI-25503 (antibody, V domains shown)
VH: EVQLLESGAEVKKPGSSVKVSCKASGGTFSSYAISWVRQAPGQGLEWMGGIIPIFGTANYAQKFQGRVTITADESTSTAYMELSSLRSEDTAVYYCARSRYSGSYYYYYGMDVWGQGTTVTVSS
VL: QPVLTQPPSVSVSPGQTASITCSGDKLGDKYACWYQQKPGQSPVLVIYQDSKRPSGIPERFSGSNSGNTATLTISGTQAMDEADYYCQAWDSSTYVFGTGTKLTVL
notes: full-length IgG
B2: ADI-25514 (antibody, V domains shown)
VH: EVQLVQSGAEVKKPGSSVKVSCKASGGTFSSYAISWVRQAPGQGLEWMGGIIPIFGTANYAQKFQGRVTITADESTSTAYMELSSLRSEDTAVYYCARSRYSGSYYYYYGMDVWGQGTTVTVSS
VL: not shown
notes: full-length IgG
B3: ADI-19469 (antibody, V domains shown)
VH: QVQLQESGPGLVKPSETLSLTCAVSGYSISSGYYWGWIRQPPGKGLEWIGSIYHSGSTYYNPSLKSRVTISVDTSKNQFSLKLSSVTAADTAVYYCARWTVMYYFDYWGQGTLVTVSS
VL: EIVMTQSPATLSLSPGERATLSCRASQSVSSYLAWYQQKPGQAPRLLIYDASNRATGIPARFSGSGSGTDFTLTISSLEPEDFAVYYCQQRSNWPTFGGGTKLEIK
notes: full-length IgG
B4: ADI-19441 (antibody, V domains shown)
VH: QVQLVQSGAEVKKPGSSVKVSCKASGGTFSSYAISWVRQAPGQGLEWMGRIIPILGIANYAQKFQGRVTITADKSTSTAYMELSSLRSEDTAVYYCARGPLTGYSSSWFDPWGQGTLVTVSS
VL: EIVMTQSPSSLSASVGDRVTITCRASQSISSYLNWYQQKPGKAPKLLIYAASSLQSGVPSRFSGSGSGTDFTLTISSLQPEDFATYYCQQSYSTLPYTFGQGTKVEIK
notes: full-length IgG
B5: ADI-19444 (antibody, V domains shown)
VH: QVQLVQSGAEVKKPGASVKVSCKASGYTFTSYGISWVRQAPGQGLEWMGWISAYNGNTNYAQKLQGRVTMTTDTSTSTAYMELRSLRSDDTAVYYCARDEALVGATFDYWGQGTLVTVSS
VL: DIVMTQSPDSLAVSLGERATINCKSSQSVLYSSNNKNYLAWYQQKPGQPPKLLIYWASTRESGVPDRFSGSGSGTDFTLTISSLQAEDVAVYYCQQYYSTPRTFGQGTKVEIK
notes: full-length IgG
B6: ADI-25595 (antibody, V domains shown)
VH: EVQLVESGGGLVKPGGSLRLSCAASGFTFSSYSMNWVRQAPGKGLEWVSSISSSSSYIYYADSVKGRFTISRDNAKNSLYLQMNSLRAEDTAVYYCARYQSSSWYYFDYWGQGTLVTVSS
VL: SYVLTQPPSVSGAPGQRVTISCTGSSSNIGAGYDVHWYQQLPGTAPKLLIYGNSNRPSGVPDRFSGSKSGTSASLAITGLQAEDEADYYCQSYDSSLSGVVFGGGTKLTVL
notes: full-length IgG; also called Ab 464
B7: ADI-24813 (antibody, V domains shown)
VH: EVQLLESGGGLVQPGRSLRLSCAASGFTFDDYAMHWVRQAPGKGLEWVSGISWNSGSIGYADSVKGRFTISRDNAKNSLYLQMNSLRAEDTALYYCAKDGDSSSWRDSNFDYWGQGTLVTVSS
VL: QSVLTQPPSVSGAPGQRVTISCTGSSSNIGAGYDVHWYQQLPGTAPKLLIYGNSNRPSGVPDRFSGSKSGTSASLAITGLQAEDEADYYCQSYDSSLSGVVFGGGTKLTVL
notes: full-length IgG
B8: ADI-24822 (antibody, V domains shown)
VH: QVQLVESGGGLVKPGGSLRLSCAASGFTFSSYSMNWVRQAPGKGLEWVSSISSSSSYIYYADSVKGRFTISRDNAKNSLYLQMNSLRAEDTAVYYCARDSGLGSRGDAFDIWGQGTMVTVSS
VL: QSVLTQPPSVSGAPGQRVTISCTGSSSNIGAGYDVHWYQQLPGTAPKLLIYGNSNRPSGVPDRFSGSKSGTSASLAITGLQAEDEADYYCQSYDSSLSGYVFGTGTKVTVL
notes: full-length IgG
B9: ADI-19429 (antibody, V domains shown)
VH: EVQLQESGPGLVKPSETLSLTCTVSGGSISSSSYYWGWIRQPPGKGLEWIGSIYYSGSTYYNPSLKSRVTISVDTSKNQFSLKLSSVTAADTAVYYCARTPLYSYGRVVGFYYYGMDVWGQGTTVTVSS
VL: QSVLTQPPSVSGAPGQRVTISCTGSSSNIGAGYDVHWYQQLPGTAPKLLIYGNSNRPSGVPDRFSGSKSGTSASLAITGLQAEDEADYYCQSYDSSLSGWVFGGGTKLTVL
B10: ADI-25496 (antibody, V domains shown)
VH: QVQLVQSGGGLVKPGGSLRLSCAASGFTFSSYSMNWVRQAPGKGLEWVSSISSSSSYIYYADSVKGRFTISRDNAKNSLYLQMNSLRAEDTAVYYCARVASEVWFFDLWGRGTLVTVSS
VL: QPVLTQPPSVSGAPGQRVTISCTGSSSNIGAGYDVHWYQQLPGTAPKLLIYGNSNRPSGVPDRFSGSKSGTSASLAITGLQAEDEADYYCQSYDSSLSGYVFGTGTKLTVL
notes: full-length IgG
B11: ADI-19435 (antibody, V domains shown)
VH: QVQLQESGPGLVKPSQTLSLTCTVSGGSISSGSYYWSWIRQPAGKGLEWIGRIYTSGSTNYNPSLKSRVTISVDTSKNQFSLKLSSVTAADTAVYYCAREGRGGAFDIWGQGTLVTVSS
VL: SYELTQPPSVSVSPGQTARITCSADALPKQYAYWYQQKPGQAPVLVIYKDSERPSGIPERFSGSSSGTTVTLTISGVQAEDEADYYCQSADSSGTYVVFGGGTQLTVL
notes: full-length IgG
B12: ADI-19473 (antibody, V domains shown)
VH: EVQLVESGAEVKKPGESLKISCKGSGYSFTSYWIGWVRQMPGKGLEWMGIIYPGDSDTRYSPSFQGQVTISADKSISTAYLQWSSLKASDTAMYYCARLIAAAGIDYWGQGTLVTVSS
VL: NFMLTQPHSVSESPGKTVTISCTRSSGSIASNYVQWYQQRPGSSPTTVIYEDNQRPSGVPDRFSGSIDSSSNSASLTISGLKTEDEADYYCQSYDSSNIWVFGGGTKVTVL
notes: full-length IgG
B13: ADI-25588 (antibody, V domains shown)
VH: EVQLVESGGGLVKPGGSLRLSCAASGFTFSSYSMNWVRQAPGKGLEWVSSISSSSSYIYYADSVKGRFTISRDNAKNSLYLQMNSLRAEDTAVYYCARYSSSLGAFDIWGQGTTVTVSS
VL: QSVLTQPPSVSGAPGQRVTISCTGSSSNIGAGYDVHWYQQLPGTAPKLLIYGNSNRPSGVPDRFSGSKSGTSASLAITGLQAEDEADYYCQSYDSSLSDVFGTGTKVTVL
notes: full-length IgG
B14: ADI-22767 (antibody, V domains shown)
VH: QVQLVESGGGLVKPGGSLRLSCAASGFTFSSYSMNWVRQAPGKGLEWVSSISSSSSYIYYADSVKGRFTISRDNAKNSLYLQMNSLRAEDTAVYYCAREANWGVAFDIWGQGTMVTVSS
VL: QSVVTQPPSVSGAPGQRVTISCTGSSSNIGAGYDVHWYQQLPGTAPKLLIYGNSNRPSGVPDRFSGSKSGTSASLAITGLQAEDEADYYCQSYDSSLSYVFGTGTKVTVL
notes: full-length IgG
B15: ADI-19468 (antibody, V domains shown)
VH: EVQLVESGPGLVKPSETLSLTCTVSGGSISSSSYYWGWIRQPPGKGLEWIGSIYYSGSTYYNPSLKSRVTISVDTSKNQFSLKLSSVTAADTAVYYCARRDGYNYGWFDPWGQGTLVTVSS
VL: NFMLTQPHSVSESPGKTVTISCTGSSGSIASNYVQWYQQRPGSAPTTVIYEDNQRPSGVPDRFSGSIDSSSNSASLTISGLKTEDEADYYCQSYDSSNVVFGGGTKVTVL
notes: full-length IgG
B16: ADI-19471 (antibody, V domains shown)
VH: EVQLVESGGGLVQPGGSLRLSCSASGFTFSSYAMHWVRQAPGKGLEYVSAISSNGGSTYYADSVKGRFTISRDNSKNTLYLQMSSLRAEDTAVYYCVKADQGSSGWFPDYWGQGTLVTVSS
VL: NFMLTQPHSVSESPGKTVTISCTRSSGSIASNYVQWYQQRPGSSPTTVIYEDNQRPSGVPDRFSGSIDSSSNSASLTISGLKTEDEADYYCQSYDSSNWVFGGGTKLTVL
notes: full-length IgG
B17: ADI-24843 (antibody, V domains shown)
VH: EVQLVESGPGLVKPSQTLSLTCTVSGGSISSGDYYWSWIRQPPGKGLEWIGYIYYSGSTYYNPSLKSRVTISVDTSKNQFSLKLSSVTAADTAVYYCARESIVGAVDYWGQGTLVTVSS
VL: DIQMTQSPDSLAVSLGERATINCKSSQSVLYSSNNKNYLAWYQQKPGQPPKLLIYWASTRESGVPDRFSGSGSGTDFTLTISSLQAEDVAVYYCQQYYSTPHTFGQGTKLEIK
notes: full-length IgG; also called Ab 405
B18: ADI-24837 (antibody, V domains shown)
VH: QVQLQESGPGLVKPSETLSLTCTVSGGSISSYYWSWIRQPPGKGLEWIGYIYYSGSTNYNPSLKSRVTISVDTSKNQFSLKLSSVTAADTAVYYCARAIYYYDSSGYYYVGDAFDIWGQGTTVTVSS
VL: QSVLTQPPSVSAAPGQKVTISCSGSSSNIGNNYVSWYQQLPGTAPKLLIYENNKRPSGIPDRFSGSKSGTSATLGITGLQTGDEADYYCGTWDSSLSAGVFGGGTKLTVL
B19: ADI-24816 (antibody, V domains shown)
VH: QVQLVQSGAEVKKPGASVKVSCKASGYTFTSYDINWVRQATGQGLEWMGWMNPNSGNTGYAQKFQGRVTMTRNTSISTAYMELSSLRSEDTAVYYCARGIPGYYYYGMDVWGQGTTVTVSS
VL: not shown
notes: full-length IgG
B20: ADI-24824 (antibody, V domains shown)
VH: QVQLQESGPGLVKPSETLSLTCTVSGGSISSYYWSWIRQPPGKGLEWIGYIYYSGSTNYNPSLKSRVTISVDTSKNQFSLKLSSVTAADTAVYYCAISLYGDYRTDAFDIWGQGTTVTVSS
VL: EIVLTQSPSSFSASTGDRVTITCRASQGISSYLAWYQQKPGKAPKLLIYAASTLQSGVPSRFSGSGSGTDFTLTISCLQSEDFATYYCQQYYSYPLFGGGTKVEIK
B21: ADI-24830 (antibody, V domains shown)
VH: QVQLVQSGAEVKKPGSSVKVSCKASGGTFSSYAISWVRQAPGQGLEWMGGIIPIFGTANYAQKFQGRVTITADESTSTAYMELSSLRSEDTAVYYCARGGSMVRGLGFDPWGQGTLVTVSS
VL: not shown
notes: full-length IgG
B22: ADI-19463 (antibody, V domains shown)
VH: QVQLQESGPGLVKPSQTLSLTCTVSGGSISSGDYYWSWIRQPPGKGLEWIGYIYYSGSTYYNPSLKSRVTISVDTSKNQFSLKLSSVTAADTAVYYCARDRLGIFDYWGQGTLVTVSS
VL: not shown
notes: full-length IgG
B23: ADI-24801 (antibody, V domains shown)
VH: QVQLVQSGAEVKKPGASVKVSCKASGYTFTSYGISWVRQAPGQGLEWMGWISAYNGNTNYAQKLQGRVTMTTDTSTSTAYMELRSLRSDDTAVYYCARVTARTFGGIRKGYYYGMDVWGQGTTVTVSS
VL: not shown
notes: full-length IgG; also called Ab 368

The record followed here is patent US20260258115A1 (MAPP BIOPHARMACEUTICAL, published 2026).

In this test the target is T1, RSV postfusion F (postF), subtype A (respiratory syncytial virus subtype A, UniProt P03420 26-513).
T1 construct: also called Postfusion subtype A; F deltaFP
As to the kind of experiment: BLI.
With B1, the binding result is “no binding”.
Under B2 stands “no binding”.
Under B3 stands “no binding”; under B4, “no binding”; under B5, “no binding”.
For B6, the binding result is on record as “no binding”.
Under B7 stands “no binding”; under B8, “no binding”; under B9, “no binding”.
As for B10, the binding result is recorded as “no binding”.
As for B11, the binding result is “no binding”.
Take B12: the binding result is “no binding”.
For the molecule B13, the binding result is listed as “no binding”.
Regarding B14, the binding result was “no binding”.
Under B15 stands “no binding”; under B16, “no binding”; under B17, “no binding”.
Under B18 stands “no binding”.
For the molecule B19, the binding result is “no binding”.
Under B20 stands “no binding”; under B21, “no binding”; under B22, “no binding”.
In the case of B23, the binding result is recorded as “no binding”.
